Data from patent US9655377, “Methods of controlling fructan synthesis in plants” (COMMONWEALTH SCIENTIFIC AND INDUSTRIAL RESEARCH ORGANISATION).

Experiments:
[1] = target: T1, TaMYB13-1 (correctly spliced form) (Triticum aestivum); assay: CELD reporter assay; positive control; settings: tags: C-terminal 6xHis-tagged CELD cellulase reporter fusion; label: biotin
T1 chain: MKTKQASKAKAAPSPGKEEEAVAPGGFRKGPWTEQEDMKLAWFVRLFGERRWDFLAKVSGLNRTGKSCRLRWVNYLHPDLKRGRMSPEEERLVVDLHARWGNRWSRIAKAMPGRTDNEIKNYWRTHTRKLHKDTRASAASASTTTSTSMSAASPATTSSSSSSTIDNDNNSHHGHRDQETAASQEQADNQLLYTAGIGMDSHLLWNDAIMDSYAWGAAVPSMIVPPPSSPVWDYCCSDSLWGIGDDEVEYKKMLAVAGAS
Description: (§1) The DNA-binding activity of TaMYB13-CELD was measured as described previously (Xue, 2002a) using streptavidin-coated 96-well plate and binding/washing buffer (25 mM HEPES/KOH, pH 7.0, 50 mM KCl, 0.2 mM EDTA and 0.5 mM DTT) containing 0.15 µg µl^-1 shared herring sperm DNA, 0.3 mg ml^-1 bovine, serum albumin, 10% glycerol and 0.025% Nonidet P-40. 40,000 fluorescent units h^-1 of the CELD activity of TaMYB13-CELD protein and 2 pmol of biotinylated probes were used per assay. The cellulase activity of TaMYB13-CELD proteins bound to immobilised biotinylated probes was assayed by incubation in 100 μl of the CELD substrate solution [1 mM methylumbelliferyl β-D-cellobioside (MUC) in 50 mM Na-citrate buffer, pH 6.0] at 40° C. for 3 h. A biotin-labelled double-stranded oligonucleotide without a TaMYB13 binding site was used as a control of background activity.

[2] = target: T1, TaMYB13-1 (correctly spliced form); assay: higher affinity than S3; assayed oligonucleotide may be longer; settings: tags: C-terminal 6xHis-tagged CELD cellulase reporter fusion
Description: as §1

[3] = target: T1, TaMYB13-1 (correctly spliced form); assay: no or negligible activity; did not compete with SynO2m14; settings: tags: C-terminal 6xHis-tagged CELD cellulase reporter fusion; label: biotin
Description: (§2) The DNA-binding activity of TaMYB13-CELD was measured as described previously (Xue, 2002a) using streptavidin-coated 96-well plate and binding/washing buffer (25 mM HEPES/KOH, pH 7.0, 50 mM KCl, 0.2 mM EDTA and 0.5 mM DTT) containing 0.15 µg µl^-1 shared herring sperm DNA, 0.3 mg ml^-1 bovine, serum albumin, 10% glycerol and 0.025% Nonidet P-40. 40,000 fluorescent units h^-1 of the CELD activity of TaMYB13-CELD protein and 2 pmol of biotinylated probes were used per assay. […]
(§3) Binding site competition assays were as described by Xue (2002). […] Relative TaMYB13 binding activity was expressed as fluorescence units (FU) of methylumbelliferyl group generated from MUC hydrolysis by TaMYB13-CELD that bound to an immobilised biotin-labelled probe after 3-h incubation of cellulase assay.
(§4) To further analyse the relative binding affinity of the previously reported plant R2R3 MYB protein sites in relation to the preferred TaMYB13-binding site, a binding site competition analysis was performed. Relative TaMYB13 binding activity to three biotin-labelled probes (SynO2m14, MYB.Ph3-II and MRE2) was assessed in combination with or without one of the four unlabelled competitors in a 2.5-fold amount: SynO2m14, MYB.Ph3-II, MRE2 and AC-I. The addition of a 2.5-fold amount of unlabelled SynO2m14 to biotin-labelled SynO2m14 reduced the TaMYB13 binding activity by about 60%. […]

[4] = target: T1, TaMYB13-1 (correctly spliced form); assay: CELD reporter plate assay, 25 mM HEPES pH 7.0, 50 mM KCl; self-competition at 2.5x reduced binding about 60%; settings: tags: C-terminal 6xHis-tagged CELD cellulase reporter fusion; label: biotin
Description: as §2, §3, §4

[5] = target: T1, TaMYB13-1 (correctly spliced form); assay: no or negligible activity; settings: tags: C-terminal 6xHis-tagged CELD cellulase reporter fusion; label: biotin
[6] = target: T1, TaMYB13-1 (correctly spliced form); assay: background control; settings: tags: C-terminal 6xHis-tagged CELD cellulase reporter fusion; label: biotin
Description: as §1

[7] = target: T1, TaMYB13-1 (correctly spliced form); assay: assayed oligonucleotide may be longer; settings: tags: C-terminal 6xHis-tagged CELD cellulase reporter fusion
[8] = target: T1, TaMYB13-1 (correctly spliced form); assay: no or negligible activity, relative to SynO2m14; settings: tags: C-terminal 6xHis-tagged CELD cellulase reporter fusion; label: biotin
[9] = target: T1, TaMYB13-1 (correctly spliced form); assay: higher affinity than Ta1-SST S1; assayed oligonucleotide may be longer; settings: tags: C-terminal 6xHis-tagged CELD cellulase reporter fusion
Description: as §1

[10] = target: T1, TaMYB13-1 (correctly spliced form); assay: relative to SynO2m14; settings: tags: C-terminal 6xHis-tagged CELD cellulase reporter fusion; label: biotin

B1: SynO2 (dsDNA)
DNA 1: TCGACCGAATAAAGTTTGGTATGATGT
DNA 2: ACATCATACCAAACTTTATTCGGTCGA
B1: binds [1].

B2: Ta6-SFT1 S1 site (dsDNA)
DNA 1: TGTTAGGTTCGGTT
DNA 2: AACCGAACCTAACA
B2: binds [2].

B3: AC-I (rev-comp) (dsDNA)
DNA 1: TCGAGGGAATAAGGTAGGTGGATGATGT
DNA 2: ACATCATCCACCTACCTTATTCCCTCGA
B3: no binding [3].

B4: SynO2m14 (dsDNA)
DNA 1: TCGAGGGAATAAAGTTAGGTAAGATGT
DNA 2: ACATCTTACCTAACTTTATTCCCTCGA
B4: binds [4].

B5: MRE (rev-comp) (dsDNA)
DNA 1: TCGAGGGAATAATTTTTGGTTTGATGT
DNA 2: ACATCAAACCAAAAATTATTCCCTCGA
B5: no binding [5].

B6: control without TaMYB13 site (dsDNA)
DNA 1: GAGAATTTGCCGTTTATCTAGAAATTACCT
DNA 2: AGGTAATTTCTAGATAAACGGCAAATTCTC
B6: no binding [6].

B7: Hv6-SFT S1 site (dsDNA)
DNA 1: TATGTTAGGTAC
DNA 2: GTACCTAACATA
B7: binds [7].

B8: MYB.Ph3-I (dsDNA)
DNA 1: TCGAGGGAATAAAAACGGTTATGATGT
DNA 2: ACATCATAACCGTTTTTATTCCCTCGA
B8: no binding [8].

B9: Ta1-SST S2 site (dsDNA)
DNA 1: ATGTTCGGTAA
DNA 2: TTACCGAACAT
B9: binds [9].

B10: AC-III (dsDNA)
DNA 1: TCGAGGGAATAAAGTTAGGTTATGATGT
DNA 2: ACATCATAACCTAACTTTATTCCCTCGA
B10: binds [10].
